Experimental data as given in US20240209099A1 (SUZHOU TRANSCENTA THERAPEUTICS, published 2024).
Numbering of substitutions follows the chain as printed. Several values for one entry are separate records, joined by “and”; a condition that tells them apart may be missing. Equal values may be shown once. Blank lines part the entries; values can stand above or below the binder they belong to.

Key:
[1] = biological target: T1, mouse VEGFR2 (mouse, UniProt P35918 20-762, limits assumed); test: ELISA, 500 ng/mL mouse VEGFR2 coated, three lots
T1 sequence (P35918 20-762 limits assumed): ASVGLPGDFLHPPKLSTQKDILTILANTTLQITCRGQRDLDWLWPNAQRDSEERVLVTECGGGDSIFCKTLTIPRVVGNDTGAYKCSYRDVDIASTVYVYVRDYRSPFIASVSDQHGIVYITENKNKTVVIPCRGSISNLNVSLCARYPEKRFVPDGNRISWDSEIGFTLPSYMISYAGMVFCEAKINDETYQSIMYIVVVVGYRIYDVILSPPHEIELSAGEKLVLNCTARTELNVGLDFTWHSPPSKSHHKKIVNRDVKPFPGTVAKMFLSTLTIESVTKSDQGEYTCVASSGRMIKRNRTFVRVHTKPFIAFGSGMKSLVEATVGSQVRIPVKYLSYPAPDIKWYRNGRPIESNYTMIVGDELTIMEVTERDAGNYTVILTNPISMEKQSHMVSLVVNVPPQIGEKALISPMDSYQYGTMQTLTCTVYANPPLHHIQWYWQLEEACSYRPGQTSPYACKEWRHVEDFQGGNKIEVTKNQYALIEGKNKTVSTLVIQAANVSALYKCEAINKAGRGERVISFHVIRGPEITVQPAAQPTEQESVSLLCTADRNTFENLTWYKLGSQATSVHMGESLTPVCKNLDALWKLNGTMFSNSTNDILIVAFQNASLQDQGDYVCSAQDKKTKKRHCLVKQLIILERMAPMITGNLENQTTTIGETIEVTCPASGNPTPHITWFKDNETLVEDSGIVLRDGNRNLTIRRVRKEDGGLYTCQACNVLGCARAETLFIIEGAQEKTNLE
Experimental: (§1) ELISA binding assay was conducted to confirm its binding affinity. Briefly, ELISA plates were coated with 500 ng/mL mouse VEGFR2 in coating buffer (0.16% Na₂CO₃, 0.30% NaHCO₃) and incubated at 4° C. overnight. After twice washing, blocking buffer (1% BSA, 1% goat serum, 0.05% Tween20 in PBS) was added and plates were incubated at room temperature for 2 hours. After three times washing, serial diluted chimeric-DC101 was added in dilution buffer (1% BSA, 1% goat serum, 0.01% Tween20 in PBS) and plates were incubated at room temperature for 3 hours. After three times washing, goat anti-human HRP (1:5000 diluted) was added and plates were incubated at room temperature for 1 hour. Finally, after three times washing, TMB was added and 4 mins later 0.16 mol/L sulfuric acid was added to terminate the reaction. OD450 nm was read and recorded.

[2] = biological target: T1, mouse VEGFR2; test: ELISA, mouse VEGFR2 coated (500 ng/mL), goat anti-human HRP
Experimental: as §1

[3] = biological target: T1, mouse VEGFR2; test: competition ELISA: human VEGF165 coated (250 ng/mL), antibody titrated with 1000 ng/mL mouse VEGFR2, bound mouse VEGFR2 detected; blocked ligand human VEGF165
Experimental: ELISA blocking assay was conducted to confirm its VEGF blockade activity. Briefly, ELISA plates were coated with 250 ng/mL recombinant human VEGF165 in coating buffer and incubated at 4° C. overnight. After twice washing, blocking buffer was added and plates were incubated at room temperature for 2 hours. After three times washing, serial diluted chimeric-DC101 was added in dilution buffer and then 1000 ng/mL mouse VEGFR2 was added. Plates were incubated at room temperature for 3 hours. After three times washing, polyclonal anti-mouse VEGFR2 with mouse Fc (1: 1000) was added and plates were incubated at room temperature for 1 hour. After three times washing, goat anti-mouse HRP (1:5000 diluted) was added and plates were incubated at room temperature for 1 hour. Finally, after three times washing, TMB was added and 4 mins later 0.16 mol/L sulfuric acid was added to terminate the reaction. OD450 nm was read and recorded.

[4] = biological target: T2, Recombinant Human VEGFR2/KDR Protein, His tag (hVEGFR2-his) (human, UniProt P35968 20-764); test: ELISA, hVEGFR2-his coated
T2 construct: Expressed in HEK293, bought from ACRO Biosystems; also called human VEGFR2-his; Human VEGFR2/KDR-His
Experimental: Same protocol of Example 2 antibody screening by ELISA assay. Briefly, 0.5 μg/ml hVEGFR2-his was coated and serially diluted purified antibodies would bind to coated antigen. Using HRP conjugated goat anti-mouse Fc antibody could detect binding signals of each antibody.
The hybridoma antibodies have similar affinity to human.

[5] = biological target: T2, Recombinant Human VEGFR2/KDR Protein, …; test: SPR (Biacore), antibody captured by anti-Fc, antigen 2.5-80 nM
Experimental: (§2) A CM5 sensor chip was activated in each flow cell by 7-min injection (10 μl/min) of freshly prepared 1:1 50 mM N-hydroxysuccinimide (NHS): 200 mM 1-ethyl-3-(3-dimethylaminopropyl)-carbodiimide (EDC). Then anti-human Fc antibody (GE Healthcare) in a concentration of 10 μg/ml in 10 mM sodium acetate buffer PH 5.0 was injected onto the activated chip at 10 μl/min (HBS-EP running buffer: 10 mM HEPES, 150 mM NaCl, 3.4 mM EDTA, 0.005% surfactant P20, pH 7.4). The remaining active coupling sites were blocked by 7 min injection of 1M ethanolamine at 10 μl/min. The immobilization level of each flow cell is ˜9000RU. Antibodies were captured in FC2 by anti-human Fc IgG or anti-mouse Fc (GE Healthcare) to 200˜300RU. FC1 was used as the reference cell. Antigen was injected at varying concentrations (2.5 nM, 5 nM, 10 nM, 20 nM, 40 nM and 80 nM) after capture of antibody. The association time for antibody binding antigen is 180s. Surface Regeneration condition is 120s at 10 μl/min in Gly pH1.5. The signals with captured antibody subtracted from those without captured antibody were calculated with Biacore X100 evaluation software ver. 2.0 (Biacore).

[6] = biological target: T3, human VEGFR2 on HUVEC cells (human, UniProt P35968 20-1356); test: flow cytometry on HUVEC cells, percent shifted cells (Shift%), anti-mouse IgG-PE
T3 construct: also called hVEGFR2 on HUVEC
Experimental: Log phase HUVEC cells were collected, counted and resuspended in FACS buffer (5% BSA+PBS). 2×10∧5 cells were added to each tube and then washed once with PBS (1500 rpm, 5 mins, RT). Then […] serial diluted VEGFR2 antibodies purified from hybridoma supernatant in FACS buffer were added into corresponding tubes and were incubated at 4° C. for 1 hr. The cells were then washed twice with 1 ml PBS, followed by adding 100 μl/tube of 2nd antibody (1:400 anti-mIgG (H+L)-PE, Cell signaling #8887) in FACS buffer. The cells were incubated at 4° C. for 0.5 hr and then washed twice with PBS, followed by resuspending cells in 600 μl PBS for each sample. The cells were then transferred into FACS tube and the bindings of the antibodies to the cells were detected using flow cytometry (BD Accuri C6) (see FIG. 3).
The percentage of positive binding cells was calculated and fit by Graphpad Prism Software.

[7] = biological target: T2, Recombinant Human VEGFR2/KDR Protein, …; test: SPR (Biacore), antibody captured by anti-Fc, antigen 2.5-80 nM; second entry for mAb054 10D11F4D1F6 (r13; r11 gives another run)
Experimental: as §2
Target sequence in this assay (P35968 other isoform, or with tags, fused parts or gaps): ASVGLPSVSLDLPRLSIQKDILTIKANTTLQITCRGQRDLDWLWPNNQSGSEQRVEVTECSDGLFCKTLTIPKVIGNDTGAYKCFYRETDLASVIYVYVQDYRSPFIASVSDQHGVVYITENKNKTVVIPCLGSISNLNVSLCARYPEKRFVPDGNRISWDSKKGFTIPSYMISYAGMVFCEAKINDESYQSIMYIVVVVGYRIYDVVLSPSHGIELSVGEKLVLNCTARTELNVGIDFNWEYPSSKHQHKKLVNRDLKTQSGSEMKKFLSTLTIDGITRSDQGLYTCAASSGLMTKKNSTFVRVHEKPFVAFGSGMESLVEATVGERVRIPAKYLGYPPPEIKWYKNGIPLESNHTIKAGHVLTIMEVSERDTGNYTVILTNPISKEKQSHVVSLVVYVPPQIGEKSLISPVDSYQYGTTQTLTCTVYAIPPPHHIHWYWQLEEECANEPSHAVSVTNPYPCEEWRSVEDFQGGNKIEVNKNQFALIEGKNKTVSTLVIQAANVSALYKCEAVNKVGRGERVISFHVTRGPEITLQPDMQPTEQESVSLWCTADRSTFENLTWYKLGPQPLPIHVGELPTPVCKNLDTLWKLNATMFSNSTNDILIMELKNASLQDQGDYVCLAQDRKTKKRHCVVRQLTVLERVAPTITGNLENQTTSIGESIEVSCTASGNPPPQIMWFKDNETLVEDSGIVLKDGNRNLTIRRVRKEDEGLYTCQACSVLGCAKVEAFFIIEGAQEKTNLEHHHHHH

[8] = biological target: T2, Recombinant Human VEGFR2/KDR Protein, …; test: competition ELISA on coated hVEGFR2-his: hybridoma antibody titrated against 100 ng/ml chimeric 002C, anti-human IgG Fc-HRP
[9] = biological target: T2, Recombinant Human VEGFR2/KDR Protein, …; test: competition ELISA: hVEGFR2-his coated (1 ug/ml), antibody titrated, then 0.3 ug/ml hVEGF-A added and bound VEGF-A detected; blocked ligand hVEGF-A
Experimental: High-binding clear polystyrene 96 well plates were coated with 100 μl/well of 1 μg/ml hVEGFR2-his overnight at 4° C. After washing and blocking, serial diluted antibodies (from 10 μg/ml to 0.0006 μg/ml) were added and incubate for 1 hour at RT. 0.3 μg/ml hVEGF-A (Acrobiosystem, Cat #VE5-H4210) were added and incubated for 2 hour at RT. Then 100 μl/well of 0.25 μg/ml Biotinylated Rabbit Anti-human VEGF-A (Peprotech, Cat #400-P10Bt) was then added for detecting bound VEGF-A. Then 100 μl/well of a solution of HRP conjugated Neutravidin antibody (Pierce, Cat #31001) and TMB were added sequentially. Finally, reaction was terminated using 0.64M H₂SO₄ and plates were read at 450 nm.

[10] = biological target: T2, Recombinant Human VEGFR2/KDR Protein, …; test: competition ELISA on coated hVEGFR2-his: hybridoma antibody titrated against 100 ng/ml chimeric 054C, anti-human IgG Fc-HRP

EC50 [1]: ~0.06 µg/mL | EC50 [2]: 0.0645 µg/mL and 0.0477 µg/mL and 0.0764 µg/mL | IC50 [3]: 0.301 µg/mL and 0.28 µg/mL and 0.265 µg/mL
B1: chimeric-DC101 (anti-mouse VEGFR2 antibody DC101 with human IgG1 Fc) (antibody, V domains shown)
VH: EVQLVETGGGLVQPGNSLKLSCATSGFIFSTTWMNWIRQTPGKRLEWLAQIEDKSNNYFISYSESVKGRFTISRDDSKSSVYLQMNNLKEEDTAIYYCSWKYRSNYYFDYWGQGVMVTVSS
VL: DIVLTQSPALAVSLEQRATISCKTSQNVDYYGISYLHWYQQKPGQQPKLLIYEGSNLASGIPARFSGSGSGTDFTLTIDPVEADDIVTYYCQQSKDYPYTFGAGTKLELKR

EC50 [4]: 0.00809 µg/mL | koff [5]: 9.12e-05 s⁻¹ | kon [5]: 91800 M⁻¹ s⁻¹ and 97000 M⁻¹ s⁻¹ | EC50 [6]: 0.0612 µg/mL | koff [7]: 1.22e-05 s⁻¹ | IC50 (read off the curve) [8]: ~0.1 µg/mL | IC50 [9]: 0.0433 µg/mL
B2: 054 (mouse hybridoma antibody) (antibody, V domains shown)
VH: EVQLVESGGDLVKPGGSLKLSCAASGFTFSMYGMSWVRQTPDKRLEWVASISIGGSYTYYADSVEGRFIISRENAKNTLFLQMNSLKSEDTALYYCARELDGNYDYWGQGTTLTVSS
VL: HIMITQDELSNPVTFGESVSISCRSSKSLLYKDGKTYLNWFLQRPGQSPQLLIYLMSTRASGVSDRFSGSGSGTDFTLEISRVKAEDVGIYYCQQLVEYPFTFGSGTKLEIK
notes: Mouse antibody purified from hybridoma; also called mAb054; 10D11

EC50 [4]: 0.0232 µg/mL | Kd [5]: < 1 pM | koff [5]: < 1e-07 s⁻¹ | kon [5]: 1.14e+06 M⁻¹ s⁻¹ | EC50 [6]: 0.024 µg/mL | IC50 (read off the curve) [8]: ~0.07 µg/mL | IC50 (read off the curve) [10]: ~0.2 µg/mL | IC50 [9]: 0.0416 µg/mL
B3: 048 (mouse hybridoma antibody) (antibody, V domains shown)
VH: B2 VH with I69T, L100M, Q109H
VL: B2 VL with H1D, I2V
notes: Mouse antibody purified from hybridoma; also called mAb048; 5G4
